pKd: −log10 of the molar value.

The target of one assay is GFP-FcγRIIIa, extracellular region of human FcγRIIIa (residues 19-193, V158 allotype) (human) (UniProt P08637). In words: ITC. Background: In ITC the heat of successive injections is recorded.
Take “Human IgG1 Fc wt (residues 216-447) with G2F N-glycan (domain or fragment)”: the pKd is 5.92.

The target is the same in a further assay. In words: SPR. (In general: Surface plasmon resonance follows binding to a sensor surface in real time, without labels.)
Take “Human IgG1 Fc F241I/F243I with G2F N-glycan (domain or fragment)”: the pKd was 5.00.

The substance “Human IgG1 Fc F241I with G2F N-glycan (domain or fragment)” showed a pKd of 5.68.

“Human IgG1 Fc F241I/F243I with a single GlcNAc residue (domain or fragment)” had a pKd of 5.20.

On to “Human IgG1 Fc wt with a single GlcNAc residue (GlcNAc-Fc) (domain or fragment)”, for which the pKd was 5.62.

For the substance “Human IgG1 Fc F243S with G2F N-glycan (domain or fragment)”, the pKd is 5.72.

“Human IgG1 Fc K246F with G2F N-glycan (domain or fragment)” had a pKd of 6.47.

Take “Human IgG1 Fc F241S/F243S with G2F N-glycan (domain or fragment)”: the pKd is 4.54.

In turn, “Human IgG1 Fc wt (residues 216-447) with G2F N-glycan (domain or fragment)” gave a pKd of 6.26. Compared with the last substance, the pKd is 1.72 log units higher.

Turning to “Human IgG1 Fc F241S/F243S with a single GlcNAc residue (domain or fragment)”, the pKd was 5.46.

Regarding “Human IgG1 Fc F241S with G2F N-glycan (domain or fragment)”, the pKd is 5.82. Against the preceding substance, the pKd is 0.36 log units higher.

A further assay has as its target Human IgG1 Fc wt (residues 216-447) with G2F N-glycan (human). In words: pull-down.
For “GFP-FcγRIIIa, extracellular region of human FcγRIIIa (residues 19-193, V158 allotype) (from UniProt P08637 19-193) (receptor)”, the pKd is 6.30.

What is called pKd is the Kd on a negative log10 scale, so that one unit is a factor of ten. A lower pKd goes with a high Kd.

The values are drawn from paper PMC4192013.
